Assay [1] deals with extracellular domain protein of human MOG to which FLAG-Fc is added at the C-terminus (hMOG-FLAG-Fc) (human). The assay can be described thus: phage ELISA. (In an ELISA, binding on a coated surface is turned into a signal by an enzyme label.)
The target in assay [2] is T1, human MOG (hMOG) expressed on HEK293, Expi293F or L929 cells (human, UniProt Q16653 30-247).
T1 construct: also called hMOG/HEK293; hMOG/HEK293F
T1 chain: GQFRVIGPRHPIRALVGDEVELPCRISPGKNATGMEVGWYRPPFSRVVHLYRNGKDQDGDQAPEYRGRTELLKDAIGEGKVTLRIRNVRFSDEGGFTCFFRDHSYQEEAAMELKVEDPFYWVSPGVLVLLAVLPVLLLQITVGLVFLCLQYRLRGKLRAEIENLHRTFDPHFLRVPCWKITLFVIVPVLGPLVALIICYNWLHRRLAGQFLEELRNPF
As to the kind of experiment: phage clone on hMOG/Expi293F cells.

The target in assay [3] is T1, human MOG (hMOG) expressed on HEK293, …. As to the kind of experiment: flow cytometry on L929 cells expressing human MOG (hMOG/L929); antibody titrated, RPE-labelled goat anti-human antibody. The source says: pEF6_hMOG obtained in Example 5 was introduced to mouse connective tissue-derived fibroblast L929 cells [American Type Culture Collection (ATCC) No.: CCL-1] using HilyMax (manufactured by Dojindo Laboratories). The gene-transfected cells were selected using an antibiotic substance, Blasticidin (manufactured by Invitrogen) and then cloned by the limiting dilution method. Using the L929 cells expressing hMOG on the cell surface (abbreviated as hMOG/L929 below), the reactivities of the bispecific antibodies were analyzed by the method described below.
The hMOG/L929 cells were suspended in a Staining Buffer (SB) of PBS containing 0.1% NaN₃ and 1% FBS and dispensed to a round-bottom 96-well plate (manufactured by Becton Dickinson). […] After suspending the pellets, the plate was left to stand at ice temperature for 30 minutes. The supernatants were removed after further centrifugation (2000 rpm, 4° C., two minutes), and the pellets were washed with SB. Then, 1 μg/mL RPE fluorescently labeled goat anti-human antibody (manufactured by Southern Biotech) was added, and the plate was incubated at ice temperature for 30 minutes. After washing with SB, the cells were suspended in SB, and the fluorescence intensities of the cells were measured with a flow cytometer FACS CANTO II (manufactured by Becton Dickinson). The results are shown in FIGS. 12A to 12C and FIGS. 13A and 13B.

This note sets out measurements from US20260092110A1 (Kyowa Kirin, published 2026).

B1: MOG352 (scFv phage clone similar to MOG310 antibody) (scFv)
scFv: EVQLVQSGAEVKKPGSSVKVSCKASGGTFSRYAINWVRQAPGQGLEWMGGIIPMFSTVNYAQKFQGRVTITADESTSTAYMELSSLRSEDTAVYYCARDWAVAGMGFDYWGQGTLVTVSSGGGGSGGRASGGGGSAIQMTQSPSSVSASVGDRVTITCRASQGISSWLAWYQHKPGKAPKSLIYAASSLQSGVPSRFSGSGSGTDFTLTISSLQPEDFATYYCQQYNSYPLTFGGGTKVDIK
Turning to B1, the binding result in assay [1] and in assay [2] was “binds” in each case.

B2: MOG470 (scFv phage clone similar to MOG329 antibody) (scFv)
scFv: QVQLVESGGGLVQPGGSLRLSCAASGFTFSSYAMNWVRQAPGKGLEWVSAISGSGGSTYYADSVKGRFTISRDNSKNTLYLQVNSLRAEDTAVYYCARDYGGISPFDYWGQGTLVTVSSGGGGSGGRASGGGGSEIVMTQSPATLSLSPGERATLSCRASQSVSSYLAWYQQKPGQAPRLLIYDASNRATGIPARFSGSGSGTDFTLTISRLEPEDFAVYYCQQYGSSPYTFGQGTRLEIK
Consider B2, for which the binding result in assay [1] and in assay [2] was “binds” in each case.

B3: MOG357 (scFv phage clone similar to MOG303 antibody) (scFv)
scFv: EVQLVETGGGLVQPGGSLRLSCAASGFTFSSYAMSWVRQAPGKGLEWVSDINHSGGSTYYADSVKGRFTISRDNSKHTLYLQMNSLRAEDTAVYYCAKDYYDILTGSFFDYWGQGTLVTVSSGGGGSGGRASGGGGSDIVMTQSPSSLSASVGDRVTITCRASQGISSALAWYQQKPGKAPKLLIYDASSLESGVPSRFSGSGSGTDFTLTISSLQPEDFATYYCQQFNSYPWTFGQGTKVEIK
Regarding B3, the binding result in assay [1] and in assay [2] was “binds” throughout.

B4: MOG316 (scFv phage clone similar to MOG310 antibody) (scFv)
scFv: EVQLVQSGAEVKKPGSSVKVSCKASGGTFSRYAISWVRQAPGQGLEWMGGIIPMFNTANYAQKFQGRVTITADESTSTAYMELSSLRSEDTAVYYCARDWAVAGMGFNYWGQGTLVTVSSGGGGSGGRASGGGGSDIQMTQSPSSLSASVGDRVTITCRASQGINSALAWYQQKPGKAPKLLIYAASSLQSGVPSRFSGSGSGTDFTLTISSLQPEDFATYYCQQYNSYPITFGQGTRLEIK
Turning to B4, the binding result in assay [1] and in assay [2] was “binds” each time.

B5: MOG308 (scFv phage clone similar to MOG310 antibody) (scFv)
scFv: EVQLVQSGAEVRKSGSSVKVSCKASGGTFSRYAISWVRQAPGQGLEWMGGIIPMFSTTNYAQKFQGRVTITADESTSTAYMELSSLRSEDTAVYYCARDWAVAGMGFAYWGQGTLVTVSSGGGGSGGRASGGGGSEIVMTQSPATLSLSPGERATLSCRASQSVSSYLAWYQQKPGQAPRLLIYDASNRATGIPARFSGSGSGTDFTLTISSLEPEDFAVYYCQQRSNWPPTFGQGTKVDIK
On to B5, for which the binding result in assay [1] and in assay [2] was “binds” throughout.

B6: MOG338 (scFv phage clone similar to MOG310 antibody) (scFv)
scFv: QVQLVQSGAEVKKPGSSVKVSCKASGGTFSRYAISWVRQAPGQGLEWMGGIIPMFNTANYAQKFQGRVTITADESTSTAYMELSSLRSEDTAVYYCARDWAVAGMGFDPWGQGTLVTVSSGGGGSGGRASGGGGSEIVLTQSPATLSLSPGERATLSCRASQSVSSYLAWYQQKPGQAPRLLIYDASNRATGIPARFSGSGSGTDFTLTISSLEPEDFAVYYCQQRNNWPLTFGGGTKLEIK
On to B6, for which the binding result in assay [1] and in assay [2] was “binds” in each case.

B7: AVM IgG4PE(R409K)_MOG01dscFv2 antibody (bispecific antibody)
heavy: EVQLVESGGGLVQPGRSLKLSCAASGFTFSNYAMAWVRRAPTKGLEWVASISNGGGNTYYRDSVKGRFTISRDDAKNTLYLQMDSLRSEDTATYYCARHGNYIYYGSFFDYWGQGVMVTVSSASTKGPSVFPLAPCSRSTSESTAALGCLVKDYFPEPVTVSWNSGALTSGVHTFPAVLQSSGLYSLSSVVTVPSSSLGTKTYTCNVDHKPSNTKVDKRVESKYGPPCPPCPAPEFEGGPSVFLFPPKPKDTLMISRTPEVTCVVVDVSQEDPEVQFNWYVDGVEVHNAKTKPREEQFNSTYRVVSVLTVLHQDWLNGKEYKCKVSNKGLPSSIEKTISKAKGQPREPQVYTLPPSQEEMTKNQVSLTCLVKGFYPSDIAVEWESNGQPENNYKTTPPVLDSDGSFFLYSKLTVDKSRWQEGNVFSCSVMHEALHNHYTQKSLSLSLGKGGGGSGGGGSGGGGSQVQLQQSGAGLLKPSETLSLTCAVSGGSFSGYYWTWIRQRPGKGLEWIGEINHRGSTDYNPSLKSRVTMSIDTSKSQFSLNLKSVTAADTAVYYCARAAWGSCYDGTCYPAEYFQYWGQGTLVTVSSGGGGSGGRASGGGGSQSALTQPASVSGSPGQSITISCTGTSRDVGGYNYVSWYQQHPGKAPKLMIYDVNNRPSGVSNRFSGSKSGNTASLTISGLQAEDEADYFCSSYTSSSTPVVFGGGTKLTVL
light: QFVLSQPNSVSTNLGSTVKLSCKRSTGNIGSNYVSWYQQHEGRSPTTMIYRDDKRPDGVPDRFSGSIDRSSDSALLTINNVQTEDEADYFCQSYSSGINIFGGGTKLTVLGQPKAAPSVTLFPPSSEELQANKATLVCLISDFYPGAVTVAWKADSSPVKAGVETTTPSKQSNNKYAASSYLSLTPEQWKSHRSYSCQVTHEGSTVEKTVAPTECS
notes: also called pCI-AVM-hLG4PE(R409K)_MOG01scFv2
As for B7, the binding result in assay [3] is “binds”.

B8: AVM IgG4PE(R409K)_MOG01dscFv9 antibody (bispecific antibody)
heavy: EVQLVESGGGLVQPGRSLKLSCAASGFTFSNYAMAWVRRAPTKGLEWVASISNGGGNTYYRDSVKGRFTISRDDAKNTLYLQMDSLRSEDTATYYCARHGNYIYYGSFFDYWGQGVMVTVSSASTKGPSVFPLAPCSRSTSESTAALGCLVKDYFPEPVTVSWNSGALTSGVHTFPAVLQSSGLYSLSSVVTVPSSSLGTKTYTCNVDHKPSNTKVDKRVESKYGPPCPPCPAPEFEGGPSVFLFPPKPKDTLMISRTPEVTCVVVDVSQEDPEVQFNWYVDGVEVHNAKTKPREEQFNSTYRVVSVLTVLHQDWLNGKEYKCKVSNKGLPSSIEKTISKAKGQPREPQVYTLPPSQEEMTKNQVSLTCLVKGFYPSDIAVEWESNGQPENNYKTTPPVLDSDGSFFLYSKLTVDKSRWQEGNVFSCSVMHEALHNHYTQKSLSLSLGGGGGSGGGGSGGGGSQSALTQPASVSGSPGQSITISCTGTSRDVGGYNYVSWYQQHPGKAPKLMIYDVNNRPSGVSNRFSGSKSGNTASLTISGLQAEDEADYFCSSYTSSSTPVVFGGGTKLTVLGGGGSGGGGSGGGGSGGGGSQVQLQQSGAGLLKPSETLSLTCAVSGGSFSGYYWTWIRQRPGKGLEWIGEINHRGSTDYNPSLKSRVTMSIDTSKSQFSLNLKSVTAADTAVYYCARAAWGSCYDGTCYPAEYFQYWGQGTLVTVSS
light: QFVLSQPNSVSTNLGSTVKLSCKRSTGNIGSNYVSWYQQHEGRSPTTMIYRDDKRPDGVPDRFSGSIDRSSDSALLTINNVQTEDEADYFCQSYSSGINIFGGGTKLTVLGQPKAAPSVTLFPPSSEELQANKATLVCLISDFYPGAVTVAWKADSSPVKAGVETTTPSKQSNNKYAASSYLSLTPEQWKSHRSYSCQVTHEGSTVEKTVAPTECS
notes: also called pCI-AVM-hLG4PE(R409K)_MOG01scFv9
As to B8, the binding result in assay [3] was “binds”.

B9: AVM IgG4PE(R409K)_MOG01dscFv4 antibody (bispecific antibody)
heavy: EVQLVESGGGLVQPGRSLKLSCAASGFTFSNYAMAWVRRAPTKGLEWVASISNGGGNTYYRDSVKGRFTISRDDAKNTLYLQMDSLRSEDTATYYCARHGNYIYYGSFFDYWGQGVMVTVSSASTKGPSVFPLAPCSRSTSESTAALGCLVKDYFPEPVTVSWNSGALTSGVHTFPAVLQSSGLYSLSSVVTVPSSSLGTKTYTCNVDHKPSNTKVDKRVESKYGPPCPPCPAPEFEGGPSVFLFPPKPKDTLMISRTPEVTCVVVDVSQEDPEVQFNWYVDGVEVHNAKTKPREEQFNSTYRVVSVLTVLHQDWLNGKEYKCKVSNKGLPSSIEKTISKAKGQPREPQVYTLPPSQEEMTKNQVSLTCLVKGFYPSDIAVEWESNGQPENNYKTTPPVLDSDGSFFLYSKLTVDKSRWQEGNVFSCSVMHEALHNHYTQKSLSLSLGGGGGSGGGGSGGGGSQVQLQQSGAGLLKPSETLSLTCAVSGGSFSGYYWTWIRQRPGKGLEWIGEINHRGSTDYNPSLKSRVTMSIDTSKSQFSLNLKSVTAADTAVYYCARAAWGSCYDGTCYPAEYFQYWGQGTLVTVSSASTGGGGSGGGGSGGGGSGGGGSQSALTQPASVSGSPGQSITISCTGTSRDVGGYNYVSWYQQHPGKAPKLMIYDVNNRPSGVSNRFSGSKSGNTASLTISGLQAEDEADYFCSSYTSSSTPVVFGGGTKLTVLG
light: QFVLSQPNSVSTNLGSTVKLSCKRSTGNIGSNYVSWYQQHEGRSPTTMIYRDDKRPDGVPDRFSGSIDRSSDSALLTINNVQTEDEADYFCQSYSSGINIFGGGTKLTVLGQPKAAPSVTLFPPSSEELQANKATLVCLISDFYPGAVTVAWKADSSPVKAGVETTTPSKQSNNKYAASSYLSLTPEQWKSHRSYSCQVTHEGSTVEKTVAPTECS
notes: also called pCI-AVM-hLG4PE(R409K)_MOG01scFv4
For B9, the binding result in assay [3] was “binds”.

B10: AVM IgG4PE(R409K)_MOG01dscFv8 antibody (bispecific antibody)
heavy: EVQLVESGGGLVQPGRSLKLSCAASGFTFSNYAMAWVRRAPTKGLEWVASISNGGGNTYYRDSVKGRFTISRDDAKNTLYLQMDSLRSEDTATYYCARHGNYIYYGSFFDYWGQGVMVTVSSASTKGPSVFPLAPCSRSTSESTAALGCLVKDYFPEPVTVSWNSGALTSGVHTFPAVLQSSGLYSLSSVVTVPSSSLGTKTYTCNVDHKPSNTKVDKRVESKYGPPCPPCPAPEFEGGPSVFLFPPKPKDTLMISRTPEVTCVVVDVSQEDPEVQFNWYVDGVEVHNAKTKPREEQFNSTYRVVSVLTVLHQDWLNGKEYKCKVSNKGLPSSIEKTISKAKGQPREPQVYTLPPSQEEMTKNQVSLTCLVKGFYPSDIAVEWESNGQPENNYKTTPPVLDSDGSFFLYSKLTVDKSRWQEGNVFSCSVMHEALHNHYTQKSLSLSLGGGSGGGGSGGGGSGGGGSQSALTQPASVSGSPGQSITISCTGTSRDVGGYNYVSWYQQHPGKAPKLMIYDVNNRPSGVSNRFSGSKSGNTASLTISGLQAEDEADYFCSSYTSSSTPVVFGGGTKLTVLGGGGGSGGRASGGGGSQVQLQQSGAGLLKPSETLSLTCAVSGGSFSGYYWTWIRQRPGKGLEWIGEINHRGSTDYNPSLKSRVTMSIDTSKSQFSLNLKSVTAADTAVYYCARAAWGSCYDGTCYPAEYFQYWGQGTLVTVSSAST
light: QFVLSQPNSVSTNLGSTVKLSCKRSTGNIGSNYVSWYQQHEGRSPTTMIYRDDKRPDGVPDRFSGSIDRSSDSALLTINNVQTEDEADYFCQSYSSGINIFGGGTKLTVLGQPKAAPSVTLFPPSSEELQANKATLVCLISDFYPGAVTVAWKADSSPVKAGVETTTPSKQSNNKYAASSYLSLTPEQWKSHRSYSCQVTHEGSTVEKTVAPTECS
notes: also called pCI-AVM-hLG4PE(R409K)_MOG01scFv8
Take B10: the binding result in assay [3] was “binds”.

B11: MOG314 (scFv phage clone similar to MOG303 antibody) (scFv)
scFv: QVQLVESGGGLVQPGGSLRLSCAASGFTFSSYAMSWVRQAPGKGLEWVSAISGRGSSTYYADSVKGRFTISRDNSKNTLYLQMNSLRAEDTAVYYCAKGYYDILTGSFFDYWGQGTLVTVSSGGGGSGGRASGGGGSDIQLTQSPSSLSASVGDRVTITCRASQGISSALAWYQQKPGKAPKLLIYDASSLESGVPSRFSGSGSGTDFTLTISSLQPEDFATYYCQQFNSYPYTFGQGTKLEIK
In the case of B11, the binding result in assay [1] and in assay [2] was “binds” throughout.

B12: MOG315 (scFv phage clone similar to MOG303 antibody) (scFv)
scFv: EVQLVESGGGLVQPGGSLRLSCAASGFTFSTYAMSWVRQAPGKGLEWVSAISGSGVSTYYADSVKGRFTLSRDNSKNTLYLQMNSLRAEDTAVYYCAKAYYDILTGNFLDYWGQGTLVTVSSGGGGSGGRASGGGGSAIQLTQSPSSLSASVGDRVTITCRASQGISSALAWYQQKPGKAPKLLIYDASSLESGVPSRFSGSGSGTDFTLTISSLQPEDFATYYCQQFNSYPLTFGGGTKVEIK
Turning to B12, the binding result in assay [1] and in assay [2] was “binds” each time.

B13: MOG476 (scFv phage clone similar to MOG303 antibody) (scFv)
scFv: EVQLVESGGGLVQPGGSLRLSCAASGFTFSSYAMNWVRQAPGKGLEWVSAISYSGRSTYYADSVKGRFTISRDNSKNTLYLQMNSLRAEDTAVYYCAKGLYDILTGGGFDYWGQGTLVTVSSGGGGSGGRASGGGGSDIQMTQSPSSLSASVGDRVTITCRASQGISSALAWYQQKPGKAPKLLIYDASSLESGVPSRFSGSGSGTDFTLTISSLQPEDFATYYCQQFNSYPSTFGQGTRLEIK
As for B13, the binding result in assay [1] and in assay [2] was “binds” each time.

B14: MOG329 antibody (anti-MOG scFv displayed on phage, pCANTAB_MOG329) (scFv)
scFv: QVQLVESGGGLVQPGGSLRLSCAASGFAFRNYAMNWVRQAPGKGLEWVSAISGSGGSTYYADSVKGRFTISRDNSKNTLYLQMNSLRAEDTAVYYCARDYGGISPFDYWGQGTLVTVSSGGGGSGGRASGGGGSDIQLTQSPSSLSASVGDRVTITCRASQGISSALAWYQQKPGKAPKLLIYDASSLESGVPSRFSGSGSGTDFTLTISSLQPEDFATYYCQQFNSYPHTFGQGTKVDIK
With B14, the binding result in assay [1] and in assay [2] was “binds” in each case.

B15: MOG456 antibody (anti-MOG scFv displayed on phage, pCANTAB_MOG456) (scFv)
scFv: EVQLVESGGGLVKPGGSLRLSCAASGFTFSSYSMHWVRQAPGKGLEWVSSIGSRSRYIYYADSVKGRFTISRDNAKNSLYLQMNSLRAEDTAVYYCAKGYYDILTGSLFDYWGQGTLVTVSSGGGGSGGRASGGGGSDIVMTQSPSSLSASVGDRVTITCRASQGISSALAWYQQKPGKAPKLLIYDASSLESGVPSRFSGSGSGTDFTLTISSLQPEDFATYYCQQFNSYPWTFGQGTKVEIK
With B15, the binding result in assay [1] and in assay [2] was “binds” in each case.

B16: MOG426 (scFv phage clone similar to MOG301 antibody) (scFv)
scFv: QVQLVQSGAEVKKPGASVKVSCKASGYSFNSYGINWVRQAPGQGLEWMGWISAYTGKTSYAQKVQGRVTMTTDRSTSTAYMELRSLRSDDTAMYYCAREYDILTGYSDAFDTWGQGTMVTVSSGGGGSGGRASGGGGSEIVLTQSPATLSLSPGERATLSCRASQSVSSYLAWYQQKPGQAPRLLIYDASNRATGIPARFSGSGSGTDFTLTISSLEPEDFAVYYCQQRGNWPLTFGGGTKLEIK
In the case of B16, the binding result in assay [1] and in assay [2] was “binds” throughout.
